According to PMC8683085, “Serine ADP-ribosylation marks nucleosomes for ALC1-dependent chromatin remodeling” (eLife, 2021):

Assays:
[1] = biological target: H2BS6/H3S10ADPr4 nucleosome (UniProt P68431 22-136; P62805 1-103, H3A21C, tetra-ADP-ribose on S6 | tetra-ADP-ribose on S10); test: cell-based or functional assay
PARP1 SerADPr_(short) = biological target: T1, PARP1 SerADPr_(short) (UniProt P09874 1-1014, relatively short serine-linked ADP-ribose chains; sites not told); test: co-IP; purified components: 100 nM FLAG-ALC1, 50 nM unmodified or H3S10ADPr3 nucleosomes, 100 nM PARP1 (unmodified, SerADPr long or short); 100 mM KCl, 25 mM HEPES pH 7.9, 2 mM MgCl2, 5% glycerol, 0.1% NP-40, 1 mM DTT; anti-FLAG M2 magnetic resin; western blot; settings: both partners purified
T1 construct: PARP1, full-length construct, as m15; also called serine-auto-ADP-ribosylated PARP1 with relatively short chains; automodified PARP1

PARP1 SerADPr_(long) = biological target: T2, PARP1 SerADPr_(long) (UniProt P09874 1-1014, long serine-linked ADP-ribose chains; a small population of aspartate- and/or glutamate-linked ADPr; sites not told); test: as above; settings: both partners purified
T2 construct: PARP1, full-length construct, as m15; also called serine-auto-ADP-ribosylated PARP1 with long chains; automodified PARP1
T2 sequence (P09874 whole entry): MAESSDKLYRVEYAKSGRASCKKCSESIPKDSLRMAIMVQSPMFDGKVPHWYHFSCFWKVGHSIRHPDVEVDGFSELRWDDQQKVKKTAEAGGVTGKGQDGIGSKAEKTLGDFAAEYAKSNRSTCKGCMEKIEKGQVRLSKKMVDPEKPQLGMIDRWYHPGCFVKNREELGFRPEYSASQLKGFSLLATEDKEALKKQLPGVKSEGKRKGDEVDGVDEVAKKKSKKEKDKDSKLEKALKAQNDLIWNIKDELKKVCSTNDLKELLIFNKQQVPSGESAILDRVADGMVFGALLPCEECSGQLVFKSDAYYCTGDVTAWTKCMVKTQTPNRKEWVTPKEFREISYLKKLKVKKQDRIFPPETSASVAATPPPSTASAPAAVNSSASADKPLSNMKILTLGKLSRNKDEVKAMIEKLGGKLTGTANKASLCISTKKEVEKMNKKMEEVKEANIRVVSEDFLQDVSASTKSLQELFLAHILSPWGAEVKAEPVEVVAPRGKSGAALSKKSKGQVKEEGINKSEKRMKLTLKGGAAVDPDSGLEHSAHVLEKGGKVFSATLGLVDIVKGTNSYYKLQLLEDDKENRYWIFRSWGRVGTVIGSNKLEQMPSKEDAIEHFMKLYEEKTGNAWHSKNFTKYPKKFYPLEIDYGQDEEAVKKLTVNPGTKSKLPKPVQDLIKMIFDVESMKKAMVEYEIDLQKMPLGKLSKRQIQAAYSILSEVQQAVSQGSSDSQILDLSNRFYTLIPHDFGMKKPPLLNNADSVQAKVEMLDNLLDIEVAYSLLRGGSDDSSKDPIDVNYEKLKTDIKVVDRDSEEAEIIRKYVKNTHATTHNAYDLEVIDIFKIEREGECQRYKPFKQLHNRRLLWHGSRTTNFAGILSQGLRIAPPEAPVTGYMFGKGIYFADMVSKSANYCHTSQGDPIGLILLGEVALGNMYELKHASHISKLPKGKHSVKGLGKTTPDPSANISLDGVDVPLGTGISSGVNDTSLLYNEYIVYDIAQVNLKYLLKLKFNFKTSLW

T1 sequence (P09874 whole entry): as above

B1: ALC1 (full-length, 6xHis-1xFLAG-ALC1) (enzyme, UniProt Q86WJ1 1-897, looked up)
chain: MERAGATSRGGQAPGFLLRLHTEGRAEAARVQEQDLRQWGLTGIHLRSYQLEGVNWLAQRFHCQNGCILGDEMGLGKTCQTIALFIYLAGRLNDEGPFLILCPLSVLSNWKEEMQRFAPGLSCVTYAGDKEERACLQQDLKQESRFHVLLTTYEICLKDASFLKSFPWSVLVVDEAHRLKNQSSLLHKTLSEFSVVFSLLLTGTPIQNSLQELYSLLSFVEPDLFSKEEVGDFIQRYQDIEKESESASELHKLLQPFLLRRVKAEVATELPKKTEVVIYHGMSALQKKYYKAILMKDLDAFENETAKKVKLQNILSQLRKCVDHPYLFDGVEPEPFEVGDHLTEASGKLHLLDKLLAFLYSGGHRVLLFSQMTQMLDILQDYMDYRGYSYERVDGSVRGEERHLAIKNFGQQPIFVFLLSTRAGGVGMNLTAADTVIFVDSDFNPQNDLQAAARAHRIGQNKSVKVIRLIGRDTVEEIVYRKAASKLQLTNMIIEGGHFTLGAQKPAADADLQLSEILKFGLDKLLASEGSTMDEIDLESILGETKDGQWVSDALPAAEGGSRDQEEGKNHMYLFEGKDYSKEPSKEDRKSFEQLVNLQKTLLEKASQEGRSLRNKGSVLIPGLVEGSTKRKRVLSPEELEDRQKKRQEAAAKRRRLIEEKKRQKEEAEHKKKMAWWESNNYQSFCLPSEESEPEDLENGEESSAELDYQDPDATSLKYVSGDVTHPQAGAEDALIVHCVDDSGHWGRGGLFTALEKRSAEPRKIYELAGKMKDLSLGGVLLFPVDDKESRNKGQDLLALIVAQHRDRSNVLSGIKMAALEEGLKKIFLAAKKKKASVHLPRIGHATKGFNWYGTERLIRKHLAARGIPTYIYYFPRSKSAVLHSQSSSSSSRQLVP
notes: ALC1 (CHD1L), full-length gene synthesized by Twist Biosciences; also called FLAG-tagged ALC1; recombinant, full-length ALC1; source: Sf9 (baculovirus), purified (anti-FLAG M2 magnetic resin, FLAG peptide elution); not shown: FLAG, N-terminal, kept
- ALC1 remodeling rate constant relative to the unmodified nucleosome (REA assay) [1]: ~370 fold
- binding result (PARP1 SerADPr_(short)): binds
- binding result (PARP1 SerADPr_(long)): binds
